Tests used:
[1] = biological target: T1, GST-Freud-2 (GST-hF2) (Homo sapiens, UniProt Q5T0F9 1-858); test: EMSA
T1 sequence: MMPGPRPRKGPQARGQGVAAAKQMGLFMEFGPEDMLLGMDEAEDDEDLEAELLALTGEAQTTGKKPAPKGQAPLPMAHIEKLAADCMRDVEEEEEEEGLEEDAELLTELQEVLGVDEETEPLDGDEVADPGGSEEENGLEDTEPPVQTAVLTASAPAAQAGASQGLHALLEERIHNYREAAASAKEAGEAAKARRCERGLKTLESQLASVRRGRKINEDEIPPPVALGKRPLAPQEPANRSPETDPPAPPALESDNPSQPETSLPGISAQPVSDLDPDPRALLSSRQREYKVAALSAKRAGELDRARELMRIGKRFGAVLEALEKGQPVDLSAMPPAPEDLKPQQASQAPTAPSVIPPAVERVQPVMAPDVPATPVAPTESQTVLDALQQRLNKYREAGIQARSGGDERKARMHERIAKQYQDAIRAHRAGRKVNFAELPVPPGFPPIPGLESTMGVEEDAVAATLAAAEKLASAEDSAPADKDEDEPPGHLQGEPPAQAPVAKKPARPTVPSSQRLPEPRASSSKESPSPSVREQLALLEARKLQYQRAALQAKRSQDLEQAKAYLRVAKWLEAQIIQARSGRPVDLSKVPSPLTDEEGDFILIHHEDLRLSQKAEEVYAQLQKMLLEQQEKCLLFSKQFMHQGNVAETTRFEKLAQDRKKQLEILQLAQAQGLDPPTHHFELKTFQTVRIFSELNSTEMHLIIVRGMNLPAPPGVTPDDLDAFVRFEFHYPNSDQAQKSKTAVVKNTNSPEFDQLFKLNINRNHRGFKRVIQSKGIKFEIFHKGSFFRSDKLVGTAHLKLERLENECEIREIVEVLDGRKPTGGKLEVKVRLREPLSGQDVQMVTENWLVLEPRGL

[2] = biological target: T1, GST-Freud-2 (GST-hF2); test: EMSA; remark: listed apart in the source
[3] = biological target: T1, GST-Freud-2 (GST-hF2); test: competition
[4] = biological target: T1, GST-Freud-2 (GST-hF2); test: competition; remark: listed apart in the source
[5] = biological target: T1, GST-Freud-2 (GST-hF2); test: competition; remark: listed apart in the source

B1: 3'-DRE (-1597/-1565) (dsDNA)
DNA 1: AGGTGGCGACATAAAACCTCATTGCTTAGAACT
DNA 2: AGTTCTAAGCAATGAGGTTTTATGTCGCCACCT
B1: binds [1].

B2: 5'-DRE (-1624/-1598) (dsDNA)
DNA 1: AGATGGCACTCTAAAACATTTGCCAGA
DNA 2: TCTGGCAAATGTTTTAGAGTGCCATCT
B2: binds [2].

B3: 17-bp 5' (-1624/-1608) (dsDNA)
DNA 1: AGATGGCACTCTAAAAC
DNA 2: GTTTTAGAGTGCCATCT
B3: binds [3].

B4: 19-bp 3' (-1597/-1578) (dsDNA)
DNA 1: AGGTGGCGACATAAAACCT
DNA 2: AGGTTTTATGTCGCCACCT
B4: binds [4].

B5: 12-bp 3' (-1578/-1566) (dsDNA)
DNA 1: CATTGCTTAGAA
DNA 2: TTCTAAGCAATG
B5: no binding [5].

B6: 16-bp 5' (-1613/-1598) (dsDNA)
DNA 1: TAAAACATTTGCCAGA
DNA 2: TCTGGCAAATGTTTTA
B6: binds [3].

Reference: publication PMC4084727
